These results are taken from patent US20200165344A1 (DRAGONFLY THERAPEUTICS, published 2020).

This test addresses T1, FLT3 expressed on human AML cell lines Molm-13 and EOL-1 (human, UniProt P36888 27-993).
T1 construct: the FLT3 in the assay is that carried by the cell lines themselves; also called FMS-like tyrosine kinase-3
Nature of the test: flow cytometry on Molm-13 and EOL-1 cells. (In flow cytometry, cells or beads pass a laser one at a time.)

Method: Human AML cell lines (Molm-13 and EOL-1) expressing FLT3 were used to assay the binding of FLT3-targeting TriNKETs to the tumor-associated antigen. TriNKETs were incubated with the cells, and the binding was detected using fluorophore-conjugated anti-human IgG secondary antibodies. Cells were analyzed by flow cytometry and mean fluorescence intensity (MFI) was normalized to secondary antibody controls to obtain fold over background (FOB) values.

B1: A49-TriNKET-FLT3-4G8 (bispecific antibody, V domains shown)
VH 1: EVQLVESGGGLVKPGGSLRLSCAASGFTFSSYSMNWVRQAPGKGLEWVSSISSSSSYIYYADSVKGRFTISRDNAKNSLYLQMNSLRAEDTAVYYCARGAPMGAAAGWFDPWGQGTLVTVSS
VL 1: DIQMTQSPSSVSASVGDRVTITCRASQGISSWLAWYQQKPGKAPKLLIYAASSLQSGVPSRFSGSGSGTDFTLTISSLQPEDFATYYCQQGVSFPRTFGGGTKVEIK
VH 2: QVQLQQPGAELVKPGASLKLSCKSSGYTFTSYWMHWVRQRPGHGLEWIGEIDPSDSYKDYNQKFKDKATLTVDRSSNTAYMHLSSLTSDDSAVYYCARAITTTPFDFWGQGTTLTVSS
VL 2: DIVLTQSPATLSVTPGDSVSLSCRASQSISNNLHWYQQKSHESPRLLIKYASQSISGIPSRFSGSGSGTDFTLSINSVETEDFGVYFCQQSNTWPYTFGGGTKLEIKR
notes: also called A49-TriNKET-4G8
For the molecule B1, the binding result was “binds”.

B2: C26-TriNKET-FLT3-4G8 (bispecific antibody, V domains shown)
VH 1: QVQLQQWGAGLLKPSETLSLTCAVYGGSFSGYYWSWIRQPPGKGLEWIGEIDHSGSTNYNPSLKSRVTISVDTSKNQFSLKLSSVTAADTAVYYCARARGPWSFDPWGQGTLVTVSS
VL 1: DIQMTQSPSTLSASVGDRVTITCRASQSISSWLAWYQQKPGKAPKLLIYKASSLESGVPSRFSGSGSGTEFTLTISSLQPDDFATYYCQQYGSFPITFGGGTKVEIK
VH 2: QVQLQQPGAELVKPGASLKLSCKSSGYTFTSYWMHWVRQRPGHGLEWIGEIDPSDSYKDYNQKFKDKATLTVDRSSNTAYMHLSSLTSDDSAVYYCARAITTTPFDFWGQGTTLTVSS
VL 2: DIVLTQSPATLSVTPGDSVSLSCRASQSISNNLHWYQQKSHESPRLLIKYASQSISGIPSRFSGSGSGTDFTLSINSVETEDFGVYFCQQSNTWPYTFGGGTKLEIKR
notes: also called C26-TriNKET-4G8
B2: the binding result is “binds”.
